Measured values as given in publication PMC6954420.

Target: HP1α (mouse) (UniProt Q61686)
Assay: BLI
Conditions: K+, BLI: 100 mM KCl, 50 mM NaCl, 20 mM Na phosphate, pH 8 (G4) or pH 7 (i-motif, dsDNA), room temp, 500 nM oligo or titration, EMSA: 50 mM Tris-HCl pH 7.5, 100 mM …

Sequence of HP1α (mouse) (Q61686 whole entry): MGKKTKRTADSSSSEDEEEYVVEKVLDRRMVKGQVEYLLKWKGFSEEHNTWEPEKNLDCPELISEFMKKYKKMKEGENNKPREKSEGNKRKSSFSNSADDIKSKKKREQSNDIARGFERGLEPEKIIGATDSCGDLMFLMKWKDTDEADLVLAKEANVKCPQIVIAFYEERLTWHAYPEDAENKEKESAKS

TERRA22 was tested, and the Kd was 940 nM.
TERRA45 showed a Kd (Fig S2 gives error 0.4) of 74.4 nM.
In the case of TERRA96, the Kd is reported as 2.5 nM.
